Source: US6399078

How the values were obtained:
[1] = molecular target: cell surface receptors on glycanase treated PBMC; test: saturation binding of 125I-RANTES-heparin complexes to glycanase treated activated human PBMC
[2] = molecular target: cell surface receptors on glycanase treated PBMC; test: saturation binding of 125I-RANTES-heparin complexes to glycanase treated activated human PBMC, nonlinear curve fitting
[3] = molecular target: cell surface receptors on glycanase treated PBMC; test: saturation binding of 125I-RANTES-heparin complexes to glycanase treated activated human PBMC, gamma counting, nonlinear curve fitting after subtracting non-specific binding
CCR5 (human) [4] = molecular target: CCR5 (human) (UniProt P51681); test: flow cytometry of the activated human PBMC with mAb 2D7
CCR5 (human) [5] = molecular target: CCR5 (human) (UniProt P51681); test: glycanase treated PBMC preincubated with mAb 2D7, then 125I-RANTES-heparin complexes as labelled ligand, gamma counting; reference normal mouse IgG

Chain of UniProt P51681 (P51681 whole entry): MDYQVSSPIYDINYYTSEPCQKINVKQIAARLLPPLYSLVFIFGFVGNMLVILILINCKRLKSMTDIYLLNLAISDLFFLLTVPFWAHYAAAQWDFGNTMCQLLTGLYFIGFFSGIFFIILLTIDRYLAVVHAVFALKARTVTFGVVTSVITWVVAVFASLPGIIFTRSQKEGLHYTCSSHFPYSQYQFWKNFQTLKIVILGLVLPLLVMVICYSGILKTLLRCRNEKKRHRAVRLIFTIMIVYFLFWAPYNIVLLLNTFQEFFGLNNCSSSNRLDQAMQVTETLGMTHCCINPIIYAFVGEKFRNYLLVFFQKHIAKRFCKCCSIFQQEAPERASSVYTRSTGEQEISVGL

saturating concentration [1] [nM] | Bmax (binding sites per cell) [2] | Kd [3] [nM] | percent of cells expressing CCR5 (stained by 2D7) (CCR5 (human) [4]) [%] | percent reduction of 125I-RANTES binding (CCR5 (human) [5]) [percent] | Substance
> 1 | 900 | 1.5 |  |  | 125I-labeled RANTES-heparin complexes (from UniProt P13501 24-91) (ligand)
 |  |  | 100 | 40 | anti-CCR5 monoclonal antibody 2D7
